Source: patent US20250145701A1 (REMEGEN SHANGHAI, published 2025)

Key:
[1] = molecular target: T1, human VEGF (ACRO, His tag) (human, UniProt P15692-4 27-191, limits assumed); test: ELISA, human VEGF-His coated at 50 ng/ml, anti-human IgG Fc detection, OD450
T1 construct: Bought protein; not shown: His tag

[2] = molecular target: VEGF (species and construct not stated); test: cell-based or functional assay
[3] = molecular target: T2, human PD-1 (ACRO, His tag) (human, UniProt Q15116 25-167); test: ELISA, human PD-1-His coated at 1 ug/mL, anti-human IgG Fc detection, OD450
T2 construct: Bought protein; not shown: His tag
T2 sequence (Q15116 25-167 limits assumed): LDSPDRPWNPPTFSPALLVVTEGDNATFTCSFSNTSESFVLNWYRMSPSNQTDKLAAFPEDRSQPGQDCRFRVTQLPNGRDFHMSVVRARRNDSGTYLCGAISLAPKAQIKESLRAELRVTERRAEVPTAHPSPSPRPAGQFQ
Procedure: The binding of the antibody to human PD-1 was detected by ELISA. 1 μg/mL human PD-1 (ACRO, His tag) was coated on an ELISA plate overnight and blocked. Subsequently, the plate was added with gradient dilutions of the bispecific antibody and the control antibody, incubated and washed. Then, the plate was added with HRP-labeled anti-human IgG Fc secondary antibody, incubated and washed. After TMB solution was added for color development, the OD450 absorbance value was read on a microplate reader (see Table 12). […] Subsequently, the plate was added with gradient dilutions of the sample to be tested and the control antibody, incubated and washed. Then, the plated was added with HRP-labeled anti-human IgG Fc secondary antibody, incubated and washed. After TMB solution was added for color development, the OD450 absorbance value was read on a microplate reader (see Table 13). […] (The control substances were all obtained by in-house expression and purification)

[4] = molecular target: T3, monkey PD-1 (ACRO, His tag) (monkey, UniProt B0LAJ3 25-170); test: ELISA, monkey PD-1-His coated at 1 ug/mL, anti-human IgG Fc detection, OD450
T3 construct: Bought protein
T3 sequence (B0LAJ3 entry or part of it limits assumed, form in doubt): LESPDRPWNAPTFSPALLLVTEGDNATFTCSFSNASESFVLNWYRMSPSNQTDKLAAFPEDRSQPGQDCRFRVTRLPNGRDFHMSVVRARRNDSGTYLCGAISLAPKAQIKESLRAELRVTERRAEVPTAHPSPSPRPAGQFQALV
Procedure: The binding of candidate molecules and competitor to antigens of different species was detected by ELISA. […] The binding of antibodies to monkey PD-1 was detected by ELISA. An ELISA plate was coated with 1 μg/mL monkey PD-1 (ACRO, His tag) overnight and blocked. Subsequently, the plate was added with gradient dilutions of the sample to be tested and the control antibody, incubated and washed. Then, the plate was added with HRP-labeled anti-human IgG Fc secondary antibody, incubated and washed. After TMB solution was added for color development, the OD450 absorbance value was read on a microplate reader (see Table 15).

[5] = molecular target: T2, human PD-1 (ACRO, His tag); test: bridging ELISA: human PD-1-His coated at 1 ug/mL, antibody, then biotinylated human VEGF at 50 ng/ml and streptavidin-HRP, OD450
Procedure: The order of the binding to VEGF and PD-1 was changed for dual ELISA detection. A 96-well ELISA plate was coated with 1 μg/mL human PD-1 (ACRO, His tag) overnight, washed and blocked for 1 hour. […] TMB solution was added for color development, and the OD450 nm absorbance value was read on a microplate reader.

T1 sequence (P15692 other isoform, or with tags, fused parts or gaps limits assumed): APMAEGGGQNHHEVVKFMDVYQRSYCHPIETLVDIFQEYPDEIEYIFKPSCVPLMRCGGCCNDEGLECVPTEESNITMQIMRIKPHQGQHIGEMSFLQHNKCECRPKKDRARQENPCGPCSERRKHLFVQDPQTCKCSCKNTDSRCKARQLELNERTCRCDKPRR
VEGF (species and construct not stated), sequence (P15692 whole entry): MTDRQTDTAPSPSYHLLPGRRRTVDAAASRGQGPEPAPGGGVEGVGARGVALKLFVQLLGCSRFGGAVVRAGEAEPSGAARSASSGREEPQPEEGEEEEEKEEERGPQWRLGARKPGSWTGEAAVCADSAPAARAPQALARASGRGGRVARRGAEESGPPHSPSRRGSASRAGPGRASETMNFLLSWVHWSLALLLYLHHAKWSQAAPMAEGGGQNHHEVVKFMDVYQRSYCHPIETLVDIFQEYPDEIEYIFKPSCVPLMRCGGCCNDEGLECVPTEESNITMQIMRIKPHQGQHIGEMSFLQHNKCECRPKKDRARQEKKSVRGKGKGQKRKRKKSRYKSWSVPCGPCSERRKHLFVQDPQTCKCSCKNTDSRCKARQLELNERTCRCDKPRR

B1: Strain #48 VHH (Fc fusion)
chain: EVQLLESGGGLVQPGGSLRLSCAASGFTFSTSTMSWYRQAPGKERELVSFITSAGATTYYADSVKGRFTMSRDNSKNTVYLQMNSLRAEDTAVYYCRALVTLWNVYWGQGTLVTVSS
notes: Humanized variant of #6 (Q1E+Q5L+A49S+N58Y+D65G+D74S+V(82B)S+K83R+P84A+M89V+Q108L, Kabat); not shown: A printed molecular weight of 76.46 kD and detection by anti-human IgG Fc p
**Q.** B1 was tested. Which “TOP OD” value [1] did it give?
**A.** The value was 3.09 OD.

B2: #16 bispecific antibody targeting PD-1 and VEGF (bispecific antibody, human IgG1, kappa)
heavy: QVQLVQSGVEVKKPGASVKVSCKASGYTFTNYYMYWVRQAPGQGLEWMGGINPSNGGTNFNEKFKNRVTLTTDSSTTTAYMELKSLQFDDTAVYYCARRDYRFDMGFDYWGQGTTVTVSSASTKGPSVFPLAPSSKSTSGGTAALGCLVKDYFPEPVTVSWNSGALTSGVHTFPAVLQSSGLYSLSSVVTVPSSSLGTQTYICNVNHKPSNTKVDKKVEPKSCDKTHTCPPCPAPEAEGAPSVFLFPPKPKDTLMISRTPEVTCVVVDVSHEDPEVKFNWYVDGVEVHNAKTKPREEQYNSTYRVVSVLTVLHQDWLNGKEYKCKVSNKALPSSIEKTISKAKGQPREPQVYTLPPSREEMTKNQVSLTCLVKGFYPSDIAVEWESNGQPENNYKTTPPVLDSDGSFFLYSKLTVDKSRWQQGNVFSCSVMHEALHNHYTQKSLSLSPGEVQLLESGGGLVQPGGSLRLSCAASGFTFSTSTMSWYRQAPGKERELVSFITSAGATTYYADSVKGRFTMSRDNSKNTVYLQMNSLRAEDTAVYYCRALVTLWNVYWGQGTLVTVSS
light: EIVLTQSPATLSLSPGERATLSCRASKGVSTSGYSYLHWYQQKPGQAPRLLIYLASYLESGVPARFSGSGSGTDFTLTISSLEPEDFAVYYCQHSRDLPLTFGGGTKVEIKRTVAAPSVFIFPPSDEQLKSGTASVVCLLNNFYPREAKVQWKVDNALQSGNSQESVTEQDSKDSTYSLSSTLTLSKADYEKHKVYACEVTHQGLSSPVTKSFNRGEC
notes: Valence is 2+2
**Q.** What does the source list for B2?
**A.** maximum inhibition rate of HUVEC proliferation [2]: ~60%; TOP OD [3]: 2.58 OD; TOP OD [1]: 1.75 OD; TOP OD [4]: 3.38 OD; TOP OD [5]: 3.65 OD
